Laboratory results reported in article PMC6363796, “Identification and characterization of a direct activator of a gene transfer agent”.

B1: pGTA3 (dsDNA)
DNA 1: GCGCCGCGGGTGACCGTGTGCGCTTTTTTCATTTCGCTCGTGCGGACAGG
DNA 2: CCTGTCCGCACGAGCGAAATGAAAAAAGCGCACACGGTCACCCGCGGCGC
B2: pGafA_50 (gafA promoter) (dsDNA)
DNA 1: TCGAGATCGCCCCATTTCTTAACCAAGGGGTAACCAAAGCAACCCACGGT
DNA 2: ACCGTGGGTTGCTTTGGTTACCCCTTGGTTAAGAAATGGGGCGATCTCGA
B3: pGTA4 (dsDNA)
DNA 1: TTCATTTCGCTCGTGCGGACAGGCATGAGAGGCGGGTCACGCAAGACATG
DNA 2: CATGTCTTGCGTGACCCGCCTCTCATGCCTGTCCGCACGAGCGAAATGAA
B4: pGTA5 (dsDNA)
DNA 1: GGCATGCTAGGAGAGGTGGGCAAGCGCCGCGGGTGACCGTGTGCGCTTTT
DNA 2: AAAAGCGCACACGGTCACCCGCGGCGCTTGCCCACCTCTCCTAGCATGCC
B5: pGTA1 (dsDNA)
DNA 1: TCCGGGGTTTTTTCTTTTCAGCGGGTGCAACCCTGAATATAGCACTTGAC
DNA 2: GTCAAGTGCTATATTCAGGGTTGCACCCGCTGAAAAGAAAAAACCCCGGA

Assays:
GafA = target: T1, GafA (Rhodobacter capsulatus, UniProt D5AUH1 1-382); experiment: EMSA; 2 uM GafA; 80 nM Cy5-dsDNA, 25 mM HEPES pH 8.0, 50 mM K-glutamate, 50 mM MgSO4, 1 mM DTT, 0.1 mM EDTA, 0.05% Triton X-100, 1 ug poly dI:dC, 4% glycerol, 30 C 15 min; GtaR: 10 mM HEPES pH 8, 40 mM NaCl, 37 C 30 min; PCR products: pGTA 2 ng/ul, unlabelled 100 ng; conditions: protein: recombinant; tags: His6 (pCMF176) or His6-MBP (pCMF193); label: 5'-Cy5 (one strand); blunt
T1 sequence: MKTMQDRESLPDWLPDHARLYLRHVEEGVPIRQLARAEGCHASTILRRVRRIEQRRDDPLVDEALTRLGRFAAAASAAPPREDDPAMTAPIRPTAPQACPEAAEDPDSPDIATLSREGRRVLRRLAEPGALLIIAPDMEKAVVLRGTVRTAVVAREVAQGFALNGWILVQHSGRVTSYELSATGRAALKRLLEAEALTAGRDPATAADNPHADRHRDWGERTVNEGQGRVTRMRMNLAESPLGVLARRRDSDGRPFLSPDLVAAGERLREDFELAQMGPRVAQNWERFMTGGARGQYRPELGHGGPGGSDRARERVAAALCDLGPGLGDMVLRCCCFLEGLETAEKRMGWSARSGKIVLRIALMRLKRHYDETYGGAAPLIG

CtrA = target: T2, CtrA (Rhodobacter capsulatus, UniProt D5ATW9 1-237); experiment: EMSA; 80 nM Cy5-dsDNA, 25 mM HEPES pH 8.0, 50 mM K-glutamate, 50 mM MgSO4, 1 mM DTT, 0.1 mM EDTA, 0.05% Triton X-100, 1 ug poly dI:dC, 4% glycerol, 30 C 15 min; GtaR: 10 mM HEPES pH 8, 40 mM NaCl, 37 C 30 min; PCR products: pGTA 2 ng/ul, unlabelled 100 ng; conditions: protein: recombinant; tags: His6 (pEHisTEV, N-terminal); chain copies: 2; label: 5'-Cy5 (one strand); blunt
T2 sequence: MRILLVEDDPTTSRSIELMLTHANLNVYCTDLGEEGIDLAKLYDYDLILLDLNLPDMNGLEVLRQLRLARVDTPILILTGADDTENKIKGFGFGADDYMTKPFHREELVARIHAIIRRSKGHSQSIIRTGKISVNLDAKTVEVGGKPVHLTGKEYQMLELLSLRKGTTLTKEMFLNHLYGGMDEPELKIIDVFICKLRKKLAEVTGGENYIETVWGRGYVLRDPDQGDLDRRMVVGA

GtaR = target: T3, GtaR (Rhodobacter capsulatus, UniProt D5AM23 1-203); experiment: EMSA; binding detected at 375 nM protein or above; GtaR buffer; 80 nM Cy5-dsDNA, 25 mM HEPES pH 8.0, 50 mM K-glutamate, 50 mM MgSO4, 1 mM DTT, 0.1 mM EDTA, 0.05% Triton X-100, 1 ug poly dI:dC, 4% glycerol, 30 C 15 min; GtaR: 10 mM HEPES pH 8, 40 mM NaCl, 37 C 30 min; PCR products: pGTA 2 ng/ul, unlabelled 100 ng; conditions: protein: recombinant; tags: His6 (pEHisTEV, N-terminal); chain copies: 2; label: 5'-Cy5 (one strand); blunt
T3 sequence: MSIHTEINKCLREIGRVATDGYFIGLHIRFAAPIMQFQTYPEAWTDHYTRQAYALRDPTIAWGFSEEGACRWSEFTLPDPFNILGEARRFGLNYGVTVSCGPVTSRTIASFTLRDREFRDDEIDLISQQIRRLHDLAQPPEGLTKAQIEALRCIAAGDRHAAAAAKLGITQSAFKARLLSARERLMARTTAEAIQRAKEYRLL

Row | Binder | binding result (GafA) | Kd (CtrA) [nM] | binding result (GtaR)
1 | B1 | no binding |  | 
2 | B2 |  | 54.9 | binds
3 | B3 | no binding |  | 
4 | B4 | no binding |  | 
5 | B5 | no binding |  | 
